Test: yeast display, Sf9 membrane polyspecificity reagent, FACS + sequencing; frameworks hold sequencing errors
Procedure, shortened: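 Nanobodies came from a synthetic yeast display library in Saccharomyces cerevisiae BJ5465, induced with galactose for 36–48 hours and stained for 1 hour at 4 °C with 10% biotinylated, detergent-solubilized Sf9 membrane reagent. Cells were enriched on streptavidin microbeads and then FACS-sorted, with low and high (top ~1%) gates set on anti-HA fluorescence for expression and streptavidin fluorescence for reagent binding. Each polyreactivity label reflects the gate a clone came from. Genes were amplified by colony PCR, sequenced by MiSeq 2 × 250 and filtered by CDR length.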

Row | Sequence | polyreactivity (PSR sort gate)
1 | QVQLVESGGGLVQAGGSLRLSCAASGRIFYGYAMGWYRQAPGKEREFVAAITSGGRTYYADSVKGRFTISRDNAKNTVYLQMNSLKPEDTAVYYCAAAQYYRYGYWGQGTQVTVSS | high polyreactivity
2 | QVQLVESGGGLVQAGGSLRLSCAASGLILHINTMGWYRQAPGKERELVAAISWSGDSTYYSDSVKGRFTISRDNAKNTVYLQKNSLKPDDSAVYYGAADYWYFYTPYSYEYGYWGQGTQVTVSS | high polyreactivity
3 | QVQLEESGLGLVQAGGSLRLSCAASGFTFYGNAMGSYRKAPGKEREFVAAISSSGASTRYADSVKGRFTISRDNAKNTVYLQMYSLKPEDTAVYYCAADAPAWILEAYGYWGQGTQVTVSS | low polyreactivity
4 | QVQLVESGGGLVQAGGSLRLSSAASGSIFYSYAMGWYRQAPGKERELVARMSSGGSTYYADSVKGRFTISRDNAKNSVYLQMNSLKPEDTAVYYCAAEALYYPYETYDYWGQGTQETVSS | high polyreactivity
5 | QVQLVESGGGLFQAGGSLRLSCAASGYIFGSYVMGWYIQAPGKERELVAAISRRGGSTYYADSVKGRFTISRDNAKNTVYLQMNSLNPEDTAVYYCAADDGQYAKYDYWGQGTQVTVSS | high polyreactivity
6 | QVQLVESGGGLVQAGGSLRLSCAASGRIFTGNAMGWYRQAPGKEREWVATITRRGGSTYYADSVKGRFTISRDNAKNTVYLQMNSLKPEDTSVYYCAANRMFSNDKYGYWGQGTQVTVSS | high polyreactivity
7 | QVQLVESGGGLVQAGRSLRLSCAASGRTFPYYVMGWYRQAPGKDRELVAAINSGGRTNYADSVKGRFTISRDNAKNTVYLQLNSLKPEDTAVYYCTKRGHPARLGYYYWGQGTLVTVSS | low polyreactivity
8 | QDQLGESGGGLVQAGGSLRLSCAASGFTFWWYAMGWYRQAPGKERELVAGITSGASTYYADSVKGRYTISRDNAKNTVYIQMNSLKPEDTAVYYCAADWLGWYQPYDYWGQGTQVTVSS | low polyreactivity
9 | QVQLVESGGGLVQAGGSLRLSCAASGRTFYTNAMGWYRQAPGKERELVAVISRGGTTYYADSVKGRFTISRDNAQNSVSLQMNSLKPDDTAVYYCAKRSPYRYYGYKLRDYWGQGTQVTVSS | low polyreactivity
10 | QVQLVESGGGLVQAGGSLRLSCAASGSIFIINAMGWYRQAPGKERELVAAINNGVNTYYADSVKGRFTISRDNAKNTVYLQMNSLKPEDTAVYYCAADPYFYYYGYDYWGQGTQVTVSS | low polyreactivity
11 | QVHLVESVGGLVQAGGSLRLSCAASGFIFNRNAMGRYRQAPGKERELVAAITRAGSTSYADSVKGRFTISRDNAKNTVYLQMNSLKPEDTGVYYCAAKPFWLYAPRGWRYHYGYWGQGTQVTVSS | high polyreactivity
12 | QVQLVESGGGLVQAGGSLRLSFAASGSIFSTYAMVWYRQAPGKERELVAAISTRGGRTYYADSLKGRFTLSRDNAKNTVYLQMNSLKPEDTAVYYCAADRYKTIGQWYYYWGQGTQVTVSS | high polyreactivity
13 | QVQLVESGGGLDQAGGSLRLSCAASGFIFPVYAMGWSRPAPGKERELVAAIRRGGSTNYADSVKGRFTISRDNAKNTVYVQMNSLKPEDTAVYYCAKTIGLKHEDEYWGQGTQVTVSS | low polyreactivity
14 | QDQLVESVGGLVQAGASLRLSCAATGRTFTTYAIGLYRPAPGKERELVAAITSGTSTNYADSVKGRFTISRDTAKNTVYVQMNSLKPEDTAVYYCAAPHGRGYEYWGQGTQVTVSS | high polyreactivity
15 | QVQLVESGGGLVQAGGSLRLSCAASGSTFKRNAMGWYRQAPGKERELVASISKRGGSTYYADSVKGRFTISRDNAKNTVYLQMNSLKPEDTAVYYCAKTWQNGDRNTIGSVYAYYSWGQGTQVTVSS | high polyreactivity
16 | QVQLVESGGGLVQAGGSLRLSCAASGFIFYYYAMGWYRQAPGKERELVAAITGSGGNTYYADSVKGRFTISRDYAKNTVYFQMNSLKPEDTAFYYCNTGYDWGGDYWGQGTQVTVSS | high polyreactivity
17 | QVQLVESGGGLVQAGGSLRLSCAASGFIFSYNAMGWYRQAPGKERVLVAAISSRGGSTYYADSVMGRFTISRDNAKNTVYLQMNSLKPEDTGVSYCAVASRRVYTAPYDYWGQGTQVTVSS | high polyreactivity
18 | QVQLVESGGGLVQAGGSLRLSCAASGFIFVYYAMGWYRQAPGKERELVAAINQSGGRTYYADSVKGRFTISRDNAKNTVYLQMNSLKPEDTAVYYCAAESWDLYRYGQKHEYWGQGTQVTVSS | low polyreactivity
19 | QVQLVESGGGLVQAGGSLRLSFAASGITFDHYAMGWYRQAPGKEREFVAAIDDIGGDTYYADSVKGRFTISRDNAKNTVYLQMNSLKPEDTAVYYCAADYGYYSRFYYWGQGTQVTVSS | low polyreactivity
20 | QVQLVESGGGLVQAGGSLRLSCAASGRTFYFYAMGWYRHAPGKERELVAAITSGGGRTNYADSVKGRFTISRDNAKNTVYLQMNSLKPEDTSVYYCAAVLYGQYTGKYYFWGQGTQVTVSS | high polyreactivity
21 | QVQLVESGGGLVQAGGSLRLSCAASGSIFSYNVMGWYRQAPGKERELVAAISYGGGSTYYADSVKGRFTISRDTAKNTVYLQMNSLKPEDTAVYYCAARKWYTYYPYDYWGQGTQVTVSS | high polyreactivity
22 | QVQLVESGGGLVQAGGSLRLSCAASGFSFSRNTMGWYRQAPGKDRELVATIDRGGRTNYADSVKGRFTISRDNAKNTVYLQMNSLKPEDTAVFYCNAYWRRFPQYDYWGLGTQVTVSS | high polyreactivity

Row | Sequence | polyreactivity (PSR sort gate)
23 | QVQLVESGGGLVQAGGSLRLSCAASGRTFAWYAMGWYRQAPGKERELVATITSRGGSTYYADSVKGRFTISRDNAKNTVYLQMNSLKPEDTAVYYCAAQSFWRPHQYDYWGQGTQVTVSS | low polyreactivity
24 | QVQLVESGGGLVQAGGSLRLSCAASGRTFQKNTMGWYRQPPGKERELVAAIDYSATTTYYADSVKGRFTSSRDTAKNTVYLQMNSLKPEDTAVYYCAARWSYPRWEFDYWGQGTQVTVTS | high polyreactivity
25 | QVQLVESGGGLVQAGGSLRLSCAASGNTFLPYAMGWYRQPPGKERELVAAISWSGGSTYYADSVKGRFTISRDTAKNTVYLQMNSLKPEDTAVYYCAATPTRRYYRQSAYDYWGQGTQVTVSS | high polyreactivity
26 | QVQLVESGGGLVQAGGSLRLSCAASGSIFYGYAMGWYRQAPGKERELVAVITDGGGSTYYADSVKGRFTISRDNAMNTVYLQMNSLKPEDTAVYYCNRVFPPTDYEFDSWGQGTQLTVSS | low polyreactivity
27 | QVQLVESGGGLVQAGGSLRLSCAASGIIFGWYAMGWYRPAPGKERELVAAISSGGRTNYADSVKGRFTISRDNAKNTVYLQMNSLKPEDTAVYYCAARLWENTGYYYWGQGTQVTVSS | high polyreactivity
28 | QVQLVESGGGLVQAGGSLRLSCAASGRIFSLYAMGWYRPAPGKERELVAAITWRGGGTYYADSVKGRITISRDNAKNTVFLQMNSLKPEDTAVYYCAAEVKHIFYGYWGQGTQVTVSS | high polyreactivity
29 | QVQLVESGGGLVQAGGSLRLSCAASGRTIPFNAMGWYRQAPGKERELVAAISSSAGRTYYADSVKGRFTISRDNAKNTVYLQMNSLKPEDTAVYYCAARLYGRYRYDYWGHGTQVTVSS | low polyreactivity
30 | QVQLVESGGGLVHAGGSLRLSCAASGITSSQNAMGWYRQAPGKERELVAAISWRGGSTYYADSVKGRFTISRDNAKNNVYLQMNSLKAEDTAVYYCNVVKRSLRYDYWGQCTQVTVSS | high polyreactivity
31 | QVQLVDSGGGLVQAGGSLRLSCAASGRTFGVYAIGWYRQAPGKERELVAAITSGGSTNYADSVKGLLTISRDNANNTVYLQMNSLKPEDTAVYYCAARYKAYWQLYDYWGQGTQVTVSS | high polyreactivity
32 | QVQLVESGGGLVQAGGSLRLSCAASGSTFDANAMGWYRQAPGKERELVAAISRSGGNTYYPDSVKGRFTISRDNAKNTVYLELNSLKPEDTAVYYCAADFRNAYYDRLDYWGQGTQVTVSS | low polyreactivity
33 | QVQLVESGGGLVQAGGSLRLSCAASVFTFWWYDMGWYIQAPGKERELVAAISRGGSTYYADSVKGRFTISRDNAKNTVNLQMNSLKPEDTAVYYCAADTTYGINRREYWGQGTQVTVSS | low polyreactivity
34 | QVQLVESGGGLVQAGGSLRLSCAASGFTFRRYAMGWYRQAPGKERELVAAISGRGGSTYYADSVKGRFTISRDTAKNTVYLQINSLKPEDTAVYYCNDDRYVRWTPGDYWGQGTQVTVSS | high polyreactivity
35 | QVQLVESGGGLVQAGGTLRLSCAASGSTFYENTMGWYRQARGKERELVAAISFRGGSTYYADSVKGRFTISRDNAKKTVYLQMNSLKPEDTAVYYCAKDYYTLRLYDYWGQGTLVTVSS | low polyreactivity
36 | QVQLVESGGGLVQAGGSLRLSCAASGSTFQLYAMGWYRQAPGKERELVATISWRGGSTYYADSVKGRFTISRDNAKNTVYLQMNSLKPEDTAVYYCAADFYLRGRYYSRYGSWGQGTQVTVSS | high polyreactivity
37 | QVQHVESGGGLVQAGGSLRLSCAASGRIFSYYAMGWYRQAPGKERELVAVISRRGDNTYYADSVKGRFTISRDNAKKTVYLQMNSLKPEDTAVYYCAARFGYLTFYSSGYYWGQGTQVTVSS | high polyreactivity
38 | QVQLVESGGGLVQAGGSLRLSCAASGRTFSGNAMGWYRQAPGKERELVATITRRGGSTYYADSVKGRFTISRDNAKNTVYLQMNSLKPEDNAVYYCAARRVVNGGQGYESWGQGTQVTVSS | high polyreactivity
39 | QVQLVESGGGLVQAGGSLRLSCAASGRTFNRNAMGWYRQAPGKERELVAAISRGGGGTFYADSVKGRFTISRDNAKNTVYLQMNSLKPEDTAVYYCAAELYYWTYVRFDYWGQGTQVTVSS | low polyreactivity
40 | QVQLVESGGGLVQAGGSLRLSCAATGSTFRPYAMGWYRQAPGKERELVAAITTGGSTNYADSVKGRFTISRDNAKNTVYLQMNSLKPEDTAVYYCNADYDVLNWGYYDWGYDYWGQGTQVTVSS | low polyreactivity
41 | QVQLVESGGGLVQAGGSLRLSCAASGSTFYRYAMGWYRQAPGKERELVAAISKRGGSTYYADSVKGRFTISRDNAKNTVYLQMNSLKPEDTAVYYCAADPFHYGGGDDYWGQGTQVTVSS | high polyreactivity
42 | QVQLVESGGGLVQAGGSLRLSCAASGRIIGSNTMGWYRQAPGKEREFVATISSSGGSTYYADSVKGRFTISRDNAKNTVYLQMNSLKPEDTSVYYCAAPWSSGSRGGYDYWGQGTQVTVSS | high polyreactivity
43 | QVQLVESGGGLVQAGGSLRLSCAASGSTSPRNAMGWYRQAPGKERELVAAISSGGRTNYADSVKARFTISRDNAKNTDYLQMNSLKREDTAVYYCAAEVQSTYWGQGTQVTVSS | low polyreactivity
